The values below come from patent publication US20210070882A1.

The target in the test is human CD19 (human) (UniProt P15391). The test is described as follows: cell-based or functional assay.
human CD19 (human), sequence (P15391 20-556): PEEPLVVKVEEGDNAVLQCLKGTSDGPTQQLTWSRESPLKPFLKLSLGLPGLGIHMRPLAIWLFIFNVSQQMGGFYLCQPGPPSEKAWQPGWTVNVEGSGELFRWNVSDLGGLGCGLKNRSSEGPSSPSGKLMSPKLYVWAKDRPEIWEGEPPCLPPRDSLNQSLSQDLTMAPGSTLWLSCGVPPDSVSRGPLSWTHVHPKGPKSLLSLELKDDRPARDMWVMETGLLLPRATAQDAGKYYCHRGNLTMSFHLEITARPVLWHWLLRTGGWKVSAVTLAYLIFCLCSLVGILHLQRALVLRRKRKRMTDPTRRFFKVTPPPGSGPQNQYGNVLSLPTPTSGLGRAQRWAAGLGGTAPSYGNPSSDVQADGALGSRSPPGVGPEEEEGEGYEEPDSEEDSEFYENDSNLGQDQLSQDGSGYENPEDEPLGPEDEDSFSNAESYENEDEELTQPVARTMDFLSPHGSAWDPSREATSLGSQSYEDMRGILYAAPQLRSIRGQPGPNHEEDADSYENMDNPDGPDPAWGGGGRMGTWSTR

Blinatumomab (bispecific antibody) came in with a T cell activation EC50 upon Z-138 lysis, CD25/CD4 of 3.7 pM; a T cell activation EC50 upon Z-138 lysis, CD25/CD8 of 4.5 pM; a T cell activation EC50 upon Z-138 lysis, CD69/CD4 of 2.3 pM; a T cell activation EC50 upon Z-138 lysis, CD69/CD8 of 2.4 pM. Besides, the Tumor cell lysis Z-138 cells (21 h), EC50 came out at 0.26 ng/mL and the Tumor cell lysis Z-138 cells (21 h), EC50 (pM) was found to be 4.8 pM.
